T1: erythrocytes (red blood cells) carrying the EBA-175 receptor glycophorin A (human, UniProt P02724 20-150, sialic acid residues (removed by neuraminidase treatment in FIG. 12))
T1 construct: whole, on cells; The assays used whole erythrocytes; also called RBC; human RBCs
T1 sequence: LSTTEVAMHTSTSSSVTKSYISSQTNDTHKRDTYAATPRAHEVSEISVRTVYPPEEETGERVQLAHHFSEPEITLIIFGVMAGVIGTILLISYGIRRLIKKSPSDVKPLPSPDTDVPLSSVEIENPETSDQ


Tests used:
[1] = target: T1, erythrocytes (red blood cells) carrying …; assay: erythrocyte binding assay
[2] = target: T1, erythrocytes (red blood cells) carrying …; assay: erythrocyte binding assay with human RBCs with or without neuraminidase treatment, immunoblot read-out

Binder | binding result [1] | binding result [2]
Pichia pastoris-expressed recombinant EBA-175 region II (RII) protein, N-glycosylated (ligand, about 1 of 5 putative N-glycosylation sites occupied (Man14-16GlcNAc2) when expressed in P. pastoris, also called EBA-175 RII; P. pastoris derived EBA-175 RII protein) GRNTSSNNEVLSNCREKRKGMKWDCKKKNDRSNYVCIPDRRIQLCIVNLSIIKTYTKETMKDHFIEASKKESQLLLKKNDNKYNSKFCNDLKNSFLDYGHLAMGNDMDFGGYSTKAENKIQEVFKGAHGEISEHKIKNFRKKWWNEFREKLWEAMLSEHKNNINNCKNIPQEELQITQWIKEWHGEFLLERDNRSKLPKSKCKNNTLYEACEKECIDPCMKYRDWIIRSKFEWHTLSKEYETQKVPKENAENYLIKISENKNDAKVSLLLNNCDAEYSKYCDCKHTTTLVKSVLNGNDNTIKEKREHIDLDDFSKFGCDKNSVDTNTKVWECKKPYKLSTKDVCVPPRRQELCLGNIDRIYDKNLLMIKEHILAIAIYESRILKRKYKNKDDKEVCKIINKTFADIRDIIGGTDYWNDLSNRKLVGKINTNSNYVHRNKQNDKLFRDEWWKVIKKDVWNVISWVFKDKTVCKEDDIENIPQFFRWFSEWGDDYCQDKTKMIETLKVECKEKPCEDDNCKRKCNSYKEWISKKKEEYNKQAKQYQEYQKGNNYKMYSEFKSIKPEVYLKKYSEKCSNLNFEDEFKEELHSDYKNKCTMCPEVKDVPISIIRNNEQTS | binds | 
Non-N-glycosylated EBA-175 RII protein (RII-N-Gly-) expressed in Pichia pastoris (ligand, also called mutated RII protein; non-N-glycosylated RII) GRQTSSNNEVLSNCREKRKGMKWDCKKKNDRSNYVCIPDRRIQLCIVNLAIIKTYTKETMKDHFIEASKKESQLLLKKNDNKYNSKFCNDLKNSFLDYGHLAMGNDMDFGGYSTKAENKIQEVFKGAHGEISEHKIKNFRKKWWNEFREKLWEAMLSEHKNNINNCKNIPQEELQITQWIKEWHGEFLLERDNRAKLPKSKCKNNALYEACEKECIDPCMKYRDWIIRSKFEWHTLSKEYETQKVPKENAENYLIKISENKNDAKVSLLLNNCDAEYSKYCDCKHTTTLVKSVLNGNDNTIKEKREHIDLDDFSKFGCDKNSVDTNTKVWECKKPYKLSTKDVCVPPRRQELCLGNIDRIYDKNLLMIKEHILAIAIYESRILKRKYKNKDDKEVCKIIQKTFADIRDIIGGTDYWNDLSNRKLVGKINTNSNYVHRNKQNDKLFRDEWWKVIKKDVWNVISWVFKDKTVCKEDDIENIPQFFRWFSEWGDDYCQDKTKMIETLKVECKEKPCEDDNCKRKCNSYKEWISKKKEEYNKQAKQYQEYQKGNNYKMYSEFKSIKPEVYLKKYSEKCSNLNFEDEFKEELHSDYKNKCTMCPEVKDVPISIIRNNEQTS |  | binds
